Test results taken from US20090062179A1 (University of Texas, published 2009).

Target: T1, VP16-ERα chimera (full-length ERα fused to the Herpes simplex virus VP16 transactivation domain) (Herpes simplex virus, UniProt P03372 1-595)
T1 construct: Expressed in HeLa cells for the mammalian two-hybrid assay; also called pACT-ERα
T1 sequence: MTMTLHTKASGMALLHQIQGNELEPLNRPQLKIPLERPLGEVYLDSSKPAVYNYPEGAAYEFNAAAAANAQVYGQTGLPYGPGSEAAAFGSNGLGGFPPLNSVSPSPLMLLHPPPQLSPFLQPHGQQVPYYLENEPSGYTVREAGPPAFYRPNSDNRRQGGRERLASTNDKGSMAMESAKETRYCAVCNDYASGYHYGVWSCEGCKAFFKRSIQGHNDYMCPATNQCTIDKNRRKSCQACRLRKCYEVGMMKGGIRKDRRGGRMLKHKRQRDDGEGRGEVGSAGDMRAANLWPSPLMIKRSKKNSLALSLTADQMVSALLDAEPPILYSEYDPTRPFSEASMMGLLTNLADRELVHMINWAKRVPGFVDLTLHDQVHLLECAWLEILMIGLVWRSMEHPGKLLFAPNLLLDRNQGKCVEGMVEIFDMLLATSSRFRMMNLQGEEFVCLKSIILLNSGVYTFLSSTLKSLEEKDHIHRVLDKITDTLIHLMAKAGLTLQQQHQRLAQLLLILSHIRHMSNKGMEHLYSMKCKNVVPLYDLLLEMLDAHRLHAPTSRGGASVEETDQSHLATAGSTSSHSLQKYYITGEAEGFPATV
Test: mammalian two-hybrid (luciferase reporter) in HeLa cells, hormone-free

B1: GAL4-DBC-1-C terminal chimera (amino acids 479-923) (other, yeast;human, UniProt P04386 1-147, looked up)
chain: MKLLSSIEQACDICRLKKLKCSKEKPKCAKCLKNNWECRYSPKTKRSPLTRAHLTEVESRLERLEQLFLLIFPREDLDMILKMDSLQDIKALLTGLFVQDNVNKDAVTDRLASVETDMPLTLRQHRISATSSSEESSNKGQRQLTVSRRNAETPEATTQQETDTDLPEAPPPPLEPAVIARPGCVNLSLHGIVEDRRPKERISFEVMVLAELFLEMLQRDFGYRVYKMLLSLPEKVVSPPEPEKEEAAKEEATKEEEAIKEEVVKEPKDEAQNEGPATESEAPLKEDGLLPKPLSSGGEEEEKPRGEASEDLCEMALDPELLLLRDDGEEEFAGAKLEDSEVRSVASNQSEMEFSSLQDMPKELDPSAVLPLDCLLAFVFFDANWCGYLHRRDLERILLTLGIRLSAEQAKQLVSRVVTQNICQYRSLQYSRQEGLDGGLPEEVLFGNLDLLPPPGKSTKPGAAPTEHKALVSHNGSLINVGSLLQRAEQQDSGRLYLENKIHTLELKLEESHNRFSATEVTNKTLAAEMQELRVRLAEAEETARTAERQKSQLQRLLQELRRRLTPLQLEIQRVVEKADSWVEKEEPAPSN
notes: Expressed in HeLa cells for the mammalian two-hybrid assay
binding result: no binding
